The record followed here is paper doi:10.1101/2021.06.14.448324.

The target of one assay is DTX3L D2 domain (human). Kind of assay: cross-linking.
The target in another assay is DTX3L D1 domain (human). Nature of the assay: cross-linking.

Consider DTX3L D2 domain (domain or fragment), for which the stoichiometry N in the assay with DTX3L D2 domain (human) is 4.

For DTX3L D1 domain (domain or fragment), the stoichiometry N with DTX3L D1 domain (human) amounted to 2.

Usually stoichiometry N stands for the number of molecules, sites or subunits per partner or assembly.
